Reference: patent US20070265189A1 (published 2007)

What was measured:
[1] = molecular target: T1, soluble human insulin receptor-immunoglobulin heavy chain chimera (sIR-Fc) (human, UniProt P06213 28-956, limits assumed); assay: fluorescence polarization; competitor against 1 nM FITC-RP9 on sIR-Fc
T1 construct: extracellular domain; Construct of Bass et al., 1996; not shown: immunoglobulin heavy chain constant domains

[2] = molecular target: T2, recombinant human IGF-1R (rhIGF-1R) (human, UniProt P08069 31-935); assay: TR-FRET; competitor against 15 nM b-20E2 on Eu-labeled rhIGF-1R
T2 construct: extracellular domain; Coated on plates in the DELFIA assay and Eu3+ (LANCE) labeled in the TR-FRET assays

[3] = molecular target: T3, human insulin receptor (HIR) (human, UniProt P06213 28-1382, limits assumed); assay: 125I-insulin displacement, purified HIR
T3 construct: solubilised receptor

[4] = molecular target: T4, human insulin receptor (HIR) (human, UniProt P06213 28-1382, limits assumed); assay: competition with 125I-insulin, solubilised HIR
[5] = molecular target: T4, human insulin receptor (HIR); assay: radio-receptor assay on HIR, competitor 125I-insulin
[6] = molecular target: T5, soluble human insulin receptor-immunoglobulin heavy chain chimera (sIR-Fc) (human, UniProt P06213 28-956, limits assumed, Eu3+ (LANCE) label in the TR-FRET assays); assay: TR-FRET on Eu-sIR-Fc, competitor b-S175
T5 construct: extracellular domain; Construct of Bass et al., 1996; also called HIR-immunoglobulin heavy chain chimera; not shown: immunoglobulin heavy chain constant domains
Method: (§1) The TR-FRET assays were performed in a 384-well white microplate with a final volume of 30 μl.

[7] = molecular target: T5, soluble human insulin …; assay: FP on sIR-Fc, competitor FITC-RP9
[8] = molecular target: T6, soluble HIR ectodomain (sIR) (human, UniProt P06213 28-956, limits assumed); assay: FP on sIR, competitor FITC-RP9
T6 construct: extracellular domain
Text: Fluorescence polarization assays (FP) were used for peptide competition studies.

[9] = molecular target: T5, soluble human insulin …; assay: TR-FRET on Eu-sIR-Fc, competitor b-RP9
Method: Time-resolved fluorescence resonance energy transfer assays (TR-FRET) were used for peptide competition studies.
as §1

B1: H2C (D117) (peptide)
peptide: FHENFYDWFVRQVSKK
IC50 [1]: 66 nM | IC50 [2]: 460 nM

B2: S229 (peptide)
peptide 1: SDGFYNAIELLSX
peptide 2: KHLCVLEELFWGASLFGYCSGKKX
modifications: C-terminal Lig joined to linker 12
notes: heterodimer F2-F4, C-C
Kd [3]: 4.4 nM

B3: S300 (peptide)
peptide 1: DWLQRNANFYDWFVAELX
peptide 2: DWLQRNANFYDWFVAELX
modifications: C-terminal Lig′ joined to linker 14
notes: dimer, C-C
Kd [3]: 50 nM

B4: S327 (peptide)
peptide: TFYSCLASLLTGTPQPNRGPWERCRKK
Kd [3]: 2700 nM

B5: S561 (peptide)
peptide: SLEEEWAQIECEVWGRGCSGSLDESFYDWFERQL
Kd [4]: 0.018 nM

B6: S593 (peptide)
peptide: SIEEEWAQIKCDVWGRGCPSY
Kd [4]: 2.2 nM

B7: S595 (peptide)
peptide: LEEEWAQIQREVWHSPASESFYDWFERQL
Kd [4]: 0.62 nM

B8: S596 (peptide)
peptide: SLEEEWAQIQHELYGPAESESFYDWFERQL
Kd [4]: 0.045 nM

B9: H2C (peptide)
peptide: FHENFYDWFVRQVSKK
notes: also called D117
IC50 [5]: 700 nM | IC50 [6]: 410 nM | IC50 [7]: 50 nM | IC50 [8]: 37 nM | IC50 [9]: 1630 nM

B10: S337 (peptide)
peptide 1: GSLDESFYDWFERQLGKKX
peptide 2: GSLDESFYDWFERQLGKKX
modifications: C-terminal Lig′ joined to chemical linker 23
notes: C-C dimer through chemical linker 23; also called (RP9-Lig)2-23
IC50 [6]: 0.2 nM | IC50 [7]: 1 nM | IC50 [8]: 0.2 nM

B11: S414 (peptide)
peptide 1: ESFYDWFERQLGKX
peptide 2: ESFYDWFERQLGKX
modifications: C-terminal Lig′ joined to chemical linker 14
notes: Lig′ = lysine with a 2-aminohydroxyacetyl group on the side chain amino group; also called (truncated(-GSLD)RP9(-KK))2-14
IC50 [8]: 0.2 nM

B12: S380 (peptide)
peptide 1: EEDWLQRNANFYDWFVAELX
peptide 2: EEDWLQRNANFYDWFVAELX
modifications: C-terminal Lig′ joined to chemical linker 9
notes: C-C dimer through chemical linker 9; also called (EE-short-S175-Lig)2-9
IC50 [6]: 10 nM | IC50 [8]: 0.5 nM
